Laboratory results from US20240100176A1 (Eli Lilly, published 2024).

What was measured:
[1] = target: T1, hexahistidine tagged human IL-4Rα ECD H107A (human, UniProt P24394 26-232); test: capture ELISA: Ab1 on anti-human IgG Fc, His-tagged receptor at 0.2 µg/mL, anti-His HRP
T1 construct: not shown: hexahistidine tag
Description: (§1) Example 2d. […] Briefly, thirty surface amino acid residue substitutions were introduced individually into hexahistidine tagged human IL-4Rα extra cellular domain (ECD) as follows: K2D, E6R, K22D, P26R, T31R, F41A, L42G, L43G, E45R, E52R, G56R, D66R, A71R, Q82G, K87D, E94R, H107A, D108R, P124R, D125R, D143R, R148D, L155R, R160D, S164R, S168R, Q181R, P192R, K195D, or H197G. Each mutant protein having a single amino acid residue substitution as described above was transiently expressed in CHO cells and purified using standard immobilized metal affinity chromatography techniques. […] The plates were then washed 3 times with PBST and the exemplified human IL-4Rα antibody was added to the wells at a final concentration of 1 μg/mL in PBS-casein and incubated for 1 hour at room temperature. The plates were washed 3 times with PBST, the IL-4Rα mutant proteins were serially diluted 5-fold from 1 μg/mL for 3 points. in PBS-casein and added to the plate at 50 μL/well and incubated for 1 hour at room temperature. The plates were washed 3 times with PBST and a 1000-fold dilution of anti-histidine tag antibody HRP conjugate (R&D Systems, Cat. #MAB050H) in PBS-casein was added and incubated for 45 minutes at room temperature. The plates were washed 3 times, TMB substrate (Pierce, Cat. #34028) was added per manufacturer instructions, the reaction was quenched with H₂SO₄, and absorbance was read at 450 nm on an ELISA plate reader.

[2] = target: T2, hexahistidine tagged human IL-4Rα ECD D143R (human, UniProt P24394 26-232); test: as above
T2 construct: not shown: hexahistidine tag
T2 sequence (P24394 26-232 D168R): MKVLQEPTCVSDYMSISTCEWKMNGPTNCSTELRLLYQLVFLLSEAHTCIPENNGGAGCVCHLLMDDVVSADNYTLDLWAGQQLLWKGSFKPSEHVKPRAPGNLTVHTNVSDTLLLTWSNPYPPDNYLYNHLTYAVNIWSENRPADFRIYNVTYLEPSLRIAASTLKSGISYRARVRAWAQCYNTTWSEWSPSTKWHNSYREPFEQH
Description: as §1

[3] = target: T3, hexahistidine tagged human IL-4Rα ECD R160D (human, UniProt P24394 26-232); test: as above
T3 construct: not shown: hexahistidine tag
T3 sequence (P24394 26-232 R185D): as the sequence (P24394 26-232 D168R) above, with R143D, R160D counted along it
Description: as §1

[4] = target: T4, hexahistidine tagged human IL-4Rα ECD S164R (human, UniProt P24394 26-232); test: as above
T4 construct: not shown: hexahistidine tag
T4 sequence (P24394 26-232 S189R): as the sequence (P24394 26-232 D168R) above, with R143D, S164R counted along it
Description: as §1

[5] = target: T5, hexahistidine tagged human IL-4Rα ECD P192R (human, UniProt P24394 26-232); test: as above
T5 construct: not shown: hexahistidine tag
T5 sequence (P24394 26-232 P217R): as the sequence (P24394 26-232 D168R) above, with R143D, P192R counted along it
Description: as §1

[6] = target: T6, hexahistidine tagged human IL-4Rα ECD T108R (human, UniProt P24394 26-232); test: as above
T6 construct: also called D108R; not shown: hexahistidine tag
T6 sequence (P24394 26-232 T133R): as the sequence (P24394 26-232 D168R) above, with T108R, R143D counted along it

[7] = target: T7, human IL-4Rα on cells (human PBMC B cells and CD4+ T cells, Daudi cells, HEK-Blue IL-4/IL-13 cells, myeloid … (human, UniProt P24394 26-825)); test: flow cytometry on human PBMCs, CD20 B cells, Alexa Fluor 647 labelled antibody, percent IL-4Rα positive cells
T7 sequence: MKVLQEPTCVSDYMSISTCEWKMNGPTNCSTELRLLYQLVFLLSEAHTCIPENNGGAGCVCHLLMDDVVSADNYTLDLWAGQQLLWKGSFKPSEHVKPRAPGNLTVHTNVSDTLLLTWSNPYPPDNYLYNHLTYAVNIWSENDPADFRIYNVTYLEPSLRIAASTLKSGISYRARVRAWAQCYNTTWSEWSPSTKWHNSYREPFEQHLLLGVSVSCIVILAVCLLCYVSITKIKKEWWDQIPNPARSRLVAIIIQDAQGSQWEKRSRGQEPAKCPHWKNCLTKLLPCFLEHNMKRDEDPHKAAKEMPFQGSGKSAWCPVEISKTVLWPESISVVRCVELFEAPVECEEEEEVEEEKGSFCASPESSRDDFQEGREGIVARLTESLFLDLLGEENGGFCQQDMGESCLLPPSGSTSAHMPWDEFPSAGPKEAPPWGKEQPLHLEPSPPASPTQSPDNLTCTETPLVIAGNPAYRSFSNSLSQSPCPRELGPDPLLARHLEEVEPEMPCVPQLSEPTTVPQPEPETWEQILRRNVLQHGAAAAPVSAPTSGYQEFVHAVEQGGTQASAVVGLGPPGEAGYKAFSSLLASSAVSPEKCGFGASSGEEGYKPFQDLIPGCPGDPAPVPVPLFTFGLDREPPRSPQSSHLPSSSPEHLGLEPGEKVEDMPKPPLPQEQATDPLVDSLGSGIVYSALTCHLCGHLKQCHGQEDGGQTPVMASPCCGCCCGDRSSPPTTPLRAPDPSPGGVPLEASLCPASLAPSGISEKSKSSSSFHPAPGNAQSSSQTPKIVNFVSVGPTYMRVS
Procedure: Example 3b. Binding to B cells and T cells: Binding of the exemplified anti-human IL-4Rα antibodies to B cells and T cells was tested in a Fluorescence Activated Cell Sorting (FACS) assay. […] Freshly isolated cells PBMCs were resuspended at 2×10⁶ cells/mL and allowed to rest for 15 minutes at room temperature, then plated at 100 μL/well into a round bottom 96-well plate (COSTAR®) and washed with FACS buffer (PBS containing 2% fetal bovine serum from Corning®). Exemplified anti-human IL-4Rα antibodies and the respective control IgG antibodies conjugated to Alexa Fluor® 647 according to manufacturer's protocol (Thermo Fisher Scientific) were added to the wells at 66.67 nM and diluted 4-fold in duplicate. Equivalent volume of 2× antibody cocktail containing: Human TruStain FcX™. FITC anti-human CD3 Antibody, Alexa Fluor® 700 anti-human CD4 Antibody (all from Biolegend®) and CD20 Monoclonal Antibody (2H7), PerCP-Cyanine5.5 (Thermo Fisher Scientific) was then added to the wells. Cells were incubated at 4° C. for 30 minutes, washed twice with FACS buffer and resuspended in a final volume of 100 μL FACS buffer. Viability dye, Sytox™ blue (Thermo Fisher Scientific), was added and the samples were analyzed via a flow cytometer (LSRFortessa™ X-20; BD BIOSCIENCES). Data analysis was performed using FlowJo software and statistical analysis was performed using GraphPad Prism 9. […]

T1 sequence (P24394 26-232 H132A): as the sequence (P24394 26-232 D168R) above, with H107A, R143D counted along it

B1: anti-human IL-4Rα antibody Ab1 (antibody, human IgG4 S228P, kappa)
heavy: QVQLVESGGGLVQPGGSLRLSCVASGFTFSHSSMNWVRQAPGKGLEWVSYISRATGAVYYADSVKGRFTISRDNAKNSLYLQMNSLRDEDTAVYYCAREPVFDYWGQGTLVTVSSASTKGPCVFPLAPCSRSTSESTAALGCLVKDYFPEPVTVSWNSGALTSGVHTFPAVLQSSGLYSLSSVVTVPSSSLGTKTYTCNVDHKPSNTKVDKRVESKYGPPCPPCPAPEFLGGPSVFLFPPKPKDTLMISRTPEVTCVVVDVSQEDPEVKFNWYVDGVEVHNAKTKPREEQFNSTYRVVSVLTVLHQDWLNGKEYKCKVSNKGLPSSIEKTISKAKGQPREPQVYTLPPSREEMTKNQVSLTCLVKGFYPSDICVEWESNGQPENNYKTTPPVLDSDGSFFLYSRLTVDKSRWQQGNVFSCSVMHEALHNHYTQKSLSLSLG
light: DIQMTQSPSAMSASVGDRVTITCRASQDISNYLAWFQQKPGKVPTRLIYAASSLQSGVPSRFSGSGSGTEFTLTISSLQPEDFATYYCLQWSSYPRTFGQGTKVEIKRTVAAPSVFIFPPSDEQLKSGTASVVCLLNNFYPREAKVQWKVDNALQSGNSQESVTEQDSKDSTYSLSSTLTLSKADYEKHKVYACEVTHQGLSSPVTKSFNRGEC
notes: human kappa light chain; also called anti-human IL-4Rα Ab1; unconjugated Ab1
Question: B1 was tested. Which “ELISA (OD450)” value [1] did it give?
Answer: 1.84 OD450

Question: What about the “ELISA (OD450)” value [2] of the same binder?
Answer: 1.69 OD450

Question: And the “ELISA (OD450)” value [3]?
Answer: 1.7 OD450

Question: And the “ELISA (OD450)” value [4]?
Answer: 1.77 OD450

Question: And the “ELISA (OD450)” value [5]?
Answer: 1.75 OD450

Question: What about the “ELISA (OD450)” value [6] of the same binder?
Answer: 1.82 OD450

Question: What about the EC50 [7] of the same binder?
Answer: 0.15 nM
